Experimental data reported in paper PMC8995368 (Structure (London, England : 1993), 2022).

B1: Myxococcus xanthus encapsulin cargo protein EncC (ferritin-like protein) (natural protein, M. xanthus)
chain: MPQTNPFHSLVPRKMTDTELARSIRLNIEAELDAINLYAAHIDATDNEDAKAILQHVMDEEREHAALFWELIARLDPEQAAHAKEAVEKYRLITSGASHEAVEAVGKEGAAPSPADVTPEKRLTVGSLRR
B2: Myxococcus xanthus encapsulin cargo protein EncB (ferritin-like protein) (natural protein, M. xanthus, UniProt Q1D6H3 1-158, looked up)
chain: MAGPPDSDLDDVARIRLVLARELETINEYEAYARASSNPEVRAFFQHLAAEEKEHVSEAVHMLRMLDSGQNDHFAKPFVPGHFQAAEAPAPATVHVPTPDGPAFSVNGRNGRLPSEPPTSLPPQRLLYGLPAPPPAVESHPLTVGSLRRGGGGSGSGR

Target: the molecule itself
Experiment: crystal structure

Protein	stoichiometry N
B1	10
B2	10
